Assay results published in US20140206608A1 (priority 2012, published 2014).
Like-named read-outs stand apart in the source and are kept apart here. *1 amine or outer side, *2 acyl side, *3 side chain or, on linkers, in order; H or OH if unused. Where no end group is shown, it is not given here. Side-chain parts run from the residue outwards. [ ]: non-standard residue; d: D form. The star is where a group is joined. γGlu = O=C(O)[C@H](CCC(=O)[*:2])N[*:1]; Palmitoyl = CCCCCCCCCCCCCCCC(=O)*; x70 = not defined here; Aib = CC(C)(N)C(=O)O

Columns and labels:
[1] = molecular target: T1, human GIP receptor (hGIP R) (Homo sapiens, UniProt P48546); assay: cAMP response of HEK-293 cells stably expressing human GIP receptor (HTRF); type: cell-based
T1 construct: expressed in transfected cells; host or cells: HEK-293
T1 sequence (P48546 22-466): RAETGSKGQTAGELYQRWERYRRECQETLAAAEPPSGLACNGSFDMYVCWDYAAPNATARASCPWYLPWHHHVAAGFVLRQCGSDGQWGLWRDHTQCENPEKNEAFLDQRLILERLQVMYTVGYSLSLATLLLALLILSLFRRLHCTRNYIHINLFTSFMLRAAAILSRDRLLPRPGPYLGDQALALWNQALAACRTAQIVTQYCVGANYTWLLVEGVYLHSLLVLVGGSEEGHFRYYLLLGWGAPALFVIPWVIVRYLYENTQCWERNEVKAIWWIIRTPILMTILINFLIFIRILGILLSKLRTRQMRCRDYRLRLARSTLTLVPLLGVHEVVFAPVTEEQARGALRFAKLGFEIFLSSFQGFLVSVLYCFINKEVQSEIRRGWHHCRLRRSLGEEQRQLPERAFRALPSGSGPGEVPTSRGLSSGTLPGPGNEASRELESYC
Procedure: (§1) cAMP content of cells was determined using a kit from Cisbio Corp. (cat. no. 62AM4PEC) based on HTRF (Homogenous Time Resolved Fluorescence). For preparation, cells were split into T175 culture flasks and grown overnight to near confluency in medium (DMEM/10% FBS). Medium was then removed and cells washed with PBS lacking calcium and magnesium, followed by proteinase treatment with accutase (Sigma-Aldrich cat. no. A6964). Detached cells were washed and resuspended in assay buffer (1×HBSS; 20 mM HEPES, 0.1% BSA, 2 mM IBMX) and cellular density determined. They were then diluted to 400000 cells/ml and 25 μl-aliquots dispensed into the wells of 96-well plates. For measurement, 25 μl of test compound in assay buffer was added to the wells, followed by incubation for 30 minutes at room temperature.

[2] = molecular target: T2, human GLP-1 receptor (hGLP-1 R) (Homo sapiens, UniProt P43220); assay: cAMP response of HEK-293 cells stably expressing human GLP-1 receptor (HTRF); type: cell-based; conditions: cAMP formation
T2 construct: expressed in transfected cells; host or cells: HEK-293
Procedure: as §1

[3] = molecular target: human GLP-1 receptor (human, UniProt P43220 24-463); assay: cell-based or functional assay
[4] = molecular target: T3, human GIP receptor (human, UniProt P48546 22-466); assay: cell-based or functional assay
T3 sequence (looked up): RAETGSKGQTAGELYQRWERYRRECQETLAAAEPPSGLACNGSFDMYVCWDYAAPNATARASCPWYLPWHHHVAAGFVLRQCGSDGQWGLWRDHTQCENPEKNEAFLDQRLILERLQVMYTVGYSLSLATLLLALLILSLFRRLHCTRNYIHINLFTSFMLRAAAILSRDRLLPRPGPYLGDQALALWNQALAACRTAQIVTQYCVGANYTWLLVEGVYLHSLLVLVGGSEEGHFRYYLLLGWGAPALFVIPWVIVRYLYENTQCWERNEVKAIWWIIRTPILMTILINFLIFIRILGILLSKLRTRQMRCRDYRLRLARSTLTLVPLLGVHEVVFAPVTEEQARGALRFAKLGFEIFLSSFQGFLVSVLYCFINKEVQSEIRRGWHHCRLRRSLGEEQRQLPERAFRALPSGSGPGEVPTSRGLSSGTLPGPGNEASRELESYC

[5] = molecular target: T4, human glucagon receptor (hGLUC R) (Homo sapiens, UniProt P47871); assay: cAMP response of HEK-293 cells stably expressing human glucagon receptor (HTRF); type: cell-based; conditions: EC50 hGLUC R, Table 7; cAMP formation
T4 construct: expressed in transfected cells; host or cells: HEK-293
Procedure: as §1

[6] = molecular target: human glucagon receptor (human, UniProt P47871 26-477); assay: cell-based or functional assay
Sequence of human glucagon receptor (P47871 26-477): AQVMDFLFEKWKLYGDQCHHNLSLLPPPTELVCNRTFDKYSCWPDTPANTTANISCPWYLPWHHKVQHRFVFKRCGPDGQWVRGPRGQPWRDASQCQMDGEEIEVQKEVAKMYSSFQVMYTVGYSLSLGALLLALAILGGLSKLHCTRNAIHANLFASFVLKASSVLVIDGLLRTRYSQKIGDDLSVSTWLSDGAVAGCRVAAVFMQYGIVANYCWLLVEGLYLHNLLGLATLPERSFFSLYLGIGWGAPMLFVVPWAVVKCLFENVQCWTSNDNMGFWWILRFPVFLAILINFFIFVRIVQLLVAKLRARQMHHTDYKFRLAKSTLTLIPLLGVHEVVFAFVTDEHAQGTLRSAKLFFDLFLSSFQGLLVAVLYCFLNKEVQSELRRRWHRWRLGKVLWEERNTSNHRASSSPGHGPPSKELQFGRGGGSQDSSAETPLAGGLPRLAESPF

T2 sequence (P43220 24-463): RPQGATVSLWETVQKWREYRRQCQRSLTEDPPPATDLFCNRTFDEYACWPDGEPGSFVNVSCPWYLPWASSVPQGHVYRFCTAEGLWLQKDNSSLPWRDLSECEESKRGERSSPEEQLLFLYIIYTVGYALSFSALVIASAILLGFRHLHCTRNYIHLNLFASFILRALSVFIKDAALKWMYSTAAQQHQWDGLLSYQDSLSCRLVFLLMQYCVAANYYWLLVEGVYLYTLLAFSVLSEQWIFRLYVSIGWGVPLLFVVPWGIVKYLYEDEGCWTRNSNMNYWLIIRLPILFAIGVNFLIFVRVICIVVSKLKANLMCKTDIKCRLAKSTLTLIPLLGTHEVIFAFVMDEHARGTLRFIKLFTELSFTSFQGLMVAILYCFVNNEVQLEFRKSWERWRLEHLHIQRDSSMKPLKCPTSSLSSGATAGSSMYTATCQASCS
T4 sequence (P47871 26-477): as the sequence (P47871 26-477) above

Molecule	EC50 hGLP-1 R [pM] (formed cAMP) [3]	EC50 hGIP R [pM] (formed cAMP) [4]	EC50 hGLUC R [pM] (formed cAMP) [6]	also measured
CCCCCCCCCCCCCCCC(=O)N[C@@H](CCC(=O)NCCCC[C@H](NC(=O)[C@H](CCC(N)=O)NC(=O)[C@@H](NC(=O)[C@H](CO)NC(=O)[C@H](CC(C)C)NC(=O)[C@H](CC(=O)O)NC(=O)[C@H](CO)NC(=O)[C@@H](NC(=O)[C@H](Cc1ccccc1)NC(=O)[C@@H](NC(=O)CNC(=O)[C@H](CCC(=O)O)NC(=O)C(C)(C)NC(=O)[C@@H](N)Cc1ccc(O)cc1)[C@@H](C)O)[C@@H](C)O)[C@@H](C)CC)C(=O)N[C@@H](CCC(=O)O)C(=O)N[C@@H](CCC(=O)O)C(=O)N[C@@H](CCC(=O)O)C(=O)N[C@@H](C)C(=O)N[C@H](C(=O)N[C@@H](CCCNC(=N)N)C(=O)N[C@@H](CC(C)C)C(=O)N[C@@H](Cc1ccccc1)C(=O)N[C@H](C(=O)N[C@@H](CCC(=O)O)C(=O)N[C@@H](Cc1c[nH]c2ccccc12)C(=O)N[C@@H](CC(C)C)C(=O)N[C@@H](CCCCN)C(=O)N[C@@H](C)C(=O)NCC(=O)NCC(=O)N1CCC[C@H]1C(=O)N[C@@H](CO)C(=O)N[C@@H](CO)C(=O)NCC(=O)N[C@@H](C)C(=O)N1CCC[C@H]1C(=O)N1CCC[C@H]1C(=O)N1CCC[C@H]1C(=O)N[C@@H](CO)C(N)=O)[C@@H](C)CC)C(C)C)C(=O)O [SEQ ID NO: 11, Y-Aib-E-G-T-F-T-S-D-L-S-I-Q-K(γE-x53)-EEEAVRLFIEWLKAGGPSSGAPPPS-NH2]	–	–	–	EC50 [1]: 0.0057 nM
CCCCCCCCCCCCCCCC(=O)N[C@@H](CCC(=O)NCCCC[C@H](NC(=O)[C@H](CCC(N)=O)NC(=O)[C@@H](NC(=O)[C@H](CO)NC(=O)[C@H](CC(C)C)NC(=O)[C@H](CC(=O)O)NC(=O)[C@H](CO)NC(=O)[C@@H](NC(=O)[C@H](Cc1ccccc1)NC(=O)[C@@H](NC(=O)CNC(=O)[C@H](CCC(=O)O)NC(=O)C(C)(C)NC(=O)[C@@H](N)Cc1ccc(O)cc1)[C@@H](C)O)[C@@H](C)O)[C@@H](C)CC)C(=O)N[C@@H](CCC(=O)O)C(=O)N[C@@H](CCCCN)C(=O)N[C@@H](CCC(=O)O)C(=O)N[C@@H](C)C(=O)N[C@H](C(=O)N[C@@H](CCCNC(=N)N)C(=O)N[C@@H](CC(C)C)C(=O)N[C@@H](Cc1ccccc1)C(=O)N[C@H](C(=O)N[C@@H](CCC(=O)O)C(=O)N[C@@H](Cc1c[nH]c2ccccc12)C(=O)N[C@@H](CC(C)C)C(=O)N[C@@H](CCCCN)C(=O)N[C@@H](CC(N)=O)C(=O)NCC(=O)NCC(=O)N1CCC[C@H]1C(=O)N[C@@H](CO)C(=O)N[C@@H](CO)C(=O)NCC(=O)N[C@@H](C)C(=O)N1CCC[C@H]1C(=O)N1CCC[C@H]1C(=O)N1CCC[C@H]1C(=O)N[C@@H](CO)C(N)=O)[C@@H](C)CC)C(C)C)C(=O)O [SEQ ID NO: 8, Y-Aib-E-G-T-F-T-S-D-L-S-I-Q-K(γE-x53)-EKEAVRLFIEWLKNGGPSSGAPPPS-NH2]	–	–	–	EC50 ([2]; Table 7, read-out: EC50 hGLP-1 R): 0.0201 nM; EC50 ([1]; Table 7, cAMP formation, read-out: EC50 hGIP R): 0.0167 nM
H-YAEGTFTSDVSIYLEGQAAKEFIAWLVKGR-NH2 [SEQ ID NO: 7, YAEGTFTSDVSIYLEGQAAKEFIAWLVKGR-NH2, reference compound]	–	–	–	EC50 ([2]; Table 2, read-out: EC50 hGLP-1 R): 0.005 nM; EC50 ([1]; Table 2, cAMP formation, read-out: EC50 hGIP R): 3.66 nM
Tyr(1)Ile(12)-GLP1 (peptide)	5	3660	–	–
CCCCCCCCCCCCCCCCCC(=O)N[C@@H](CCC(=O)NCCCC[C@H](NC(=O)[C@H](CCC(N)=O)NC(=O)[C@@H](NC(=O)[C@H](CO)NC(=O)[C@H](CC(C)C)NC(=O)[C@H](CC(=O)O)NC(=O)[C@H](CO)NC(=O)[C@@H](NC(=O)[C@H](Cc1ccccc1)NC(=O)[C@@H](NC(=O)CNC(=O)[C@H](CCC(=O)O)NC(=O)C(C)(C)NC(=O)[C@@H](N)Cc1ccc(O)cc1)[C@@H](C)O)[C@@H](C)O)[C@@H](C)CC)C(=O)N[C@@H](CCC(=O)O)C(=O)N[C@@H](CCC(=O)O)C(=O)N[C@@H](CCC(=O)O)C(=O)N[C@@H](C)C(=O)N[C@H](C(=O)N[C@@H](CCCNC(=N)N)C(=O)N[C@@H](CC(C)C)C(=O)N[C@@H](Cc1ccccc1)C(=O)N[C@H](C(=O)N[C@@H](CCC(=O)O)C(=O)N[C@@H](Cc1c[nH]c2ccccc12)C(=O)N[C@@H](CC(C)C)C(=O)N[C@@H](CCCCN)C(=O)NC(C)(C)C(=O)NCC(=O)NCC(=O)N1CCC[C@H]1C(=O)N[C@@H](CO)C(=O)N[C@@H](CO)C(=O)NCC(=O)N[C@@H](C)C(=O)N1CCC[C@H]1C(=O)N1CCC[C@H]1C(=O)N1CCC[C@H]1C(=O)N[C@@H](CO)C(N)=O)[C@@H](C)CC)C(C)C)C(=O)O [SEQ ID NO: 12, Y-Aib-E-G-T-F-T-S-D-L-S-I-Q-K(γE-x70)-E-E-E-A-V-R-L-F-I-E-W-L-K-Aib-G-G-P-S-S-G-A-P-P-P-S-NH2]	–	–	–	EC50 ([2]; EC50 hGLP-1 R, Table 7): 0.0119 nM; EC50 [5]: 95.9 nM
Y[Aib]EGTFTSDLSIQK([γGlu-Palmitoyl])EEEAVRLFIEWLKAGGPSSGAPPPS-NH2 (N-terminus assumed; SMILES CCCCCCCCCCCCCCCC(=O)N[C@@H](CCC(=O)NCCCC[C@H](NC(=O)[C@H](CCC(N)=O)NC(=O)[C@@H](NC(=O)[C@H](CO)NC(=O)[C@H](CC(C)C)NC(=O)[C@H](CC(=O)O)NC(=O)[C@H](CO)NC(=O)[C@@H](NC(=O)[C@H](Cc1ccccc1)NC(=O)[C@@H](NC(=O)CNC(=O)[C@H](CCC(=O)O)NC(=O)C(C)(C)NC(=O)[C@@H](N)Cc1ccc(O)cc1)[C@@H](C)O)[C@@H](C)O)[C@@H](C)CC)C(=O)N[C@@H](CCC(=O)O)C(=O)N[C@@H](CCC(=O)O)C(=O)N[C@@H](CCC(=O)O)C(=O)N[C@@H](C)C(=O)N[C@H](C(=O)N[C@@H](CCCNC(=N)N)C(=O)N[C@@H](CC(C)C)C(=O)N[C@@H](Cc1ccccc1)C(=O)N[C@H](C(=O)N[C@@H](CCC(=O)O)C(=O)N[C@@H](Cc1c[nH]c2ccccc12)C(=O)N[C@@H](CC(C)C)C(=O)N[C@@H](CCCCN)C(=O)N[C@@H](C)C(=O)NCC(=O)NCC(=O)N1CCC[C@H]1C(=O)N[C@@H](CO)C(=O)N[C@@H](CO)C(=O)NCC(=O)N[C@@H](C)C(=O)N1CCC[C@H]1C(=O)N1CCC[C@H]1C(=O)N1CCC[C@H]1C(=O)N[C@@H](CO)C(N)=O)[C@@H](C)CC)C(C)C)C(=O)O) [SEQ ID NO: 11]	9.3	5.7	429000	–
Y[Aib]EGTFTSDLSIQK([γGlu-x70])EEEAVRLFIEWLK[Aib]GGPSSGAPPPS-NH2 (reading uncertain) [SEQ ID NO: 12]	11.9	14.6	95900	–
Y[Aib]EGTFTSDLSIQK([γGlu-x70])EEEAVRLFIEWLK[Aib]GGPSSGAPPPS-NH2 (reading uncertain) [SEQ ID NO: 9]	26.7	14.6	164000	–
Y[Aib]EGTFTSDLSIQK([γGlu-x70])EEEAVRLFIEWLKAGGPSSGAPPPS-NH2 (reading uncertain) [SEQ ID NO: 10]	12.5	6.7	> 1e+06	–
Y[Aib]EGTFTSDLSIQK([γGlu-x70])EKEAVRLFIEWLKAGGPSSGAPPPS-NH2 (reading uncertain) [SEQ ID NO: 13]	21.2	16.8	200000	–
